Laboratory results: patent US20190233495A1 (Sanofi, published 2019)
Non-standard residues stand in square brackets, D forms with d. 1Nal = N[C@@H](Cc1cccc2ccccc12)C(=O)O; Nle = CCCC[C@H](N)C(=O)O; Aib = CC(C)(N)C(=O)O

T1: RXFP1 receptor (UniProt Q9HBX9 1-757, limits assumed)
T1 sequence (looked up): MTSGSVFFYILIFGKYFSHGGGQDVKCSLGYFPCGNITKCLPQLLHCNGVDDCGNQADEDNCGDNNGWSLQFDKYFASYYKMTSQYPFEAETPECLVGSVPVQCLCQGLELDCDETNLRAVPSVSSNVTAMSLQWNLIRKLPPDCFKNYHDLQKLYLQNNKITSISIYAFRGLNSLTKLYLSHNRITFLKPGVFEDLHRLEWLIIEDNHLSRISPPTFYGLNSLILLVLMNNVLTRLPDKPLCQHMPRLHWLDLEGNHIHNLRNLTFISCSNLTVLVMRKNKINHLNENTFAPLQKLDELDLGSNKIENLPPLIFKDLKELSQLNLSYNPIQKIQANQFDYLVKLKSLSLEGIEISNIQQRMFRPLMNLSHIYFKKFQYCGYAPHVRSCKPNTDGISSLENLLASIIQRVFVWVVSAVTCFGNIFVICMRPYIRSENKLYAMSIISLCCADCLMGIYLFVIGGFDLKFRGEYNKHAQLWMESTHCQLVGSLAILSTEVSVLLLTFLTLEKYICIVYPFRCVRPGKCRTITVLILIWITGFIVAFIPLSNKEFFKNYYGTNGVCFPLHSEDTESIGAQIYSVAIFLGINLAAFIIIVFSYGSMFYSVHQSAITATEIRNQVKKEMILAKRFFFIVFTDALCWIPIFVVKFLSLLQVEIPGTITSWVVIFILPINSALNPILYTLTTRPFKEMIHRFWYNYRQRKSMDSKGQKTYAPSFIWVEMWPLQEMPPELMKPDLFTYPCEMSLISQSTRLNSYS


These binders were tested against T1, RXFP1 receptor (assay: cell-based or functional assay).

| Binder | cAMP assay in OVCAR 5 cells EC50 | cAMP assay in OVCAR 5 cells Emax |
| --- | --- | --- |
| Ac-LEGREKVRAK(Ac)I[Aib][Aib]EG[Nle]ST[1Nal]S[Aib]RKK(Ac)-NH2 (SMILES CCCC[C@H](NC(=O)CNC(=O)[C@H](CCC(=O)O)NC(=O)C(C)(C)NC(=O)C(C)(C)NC(=O)[C@@H](NC(=O)[C@H](CCCCNC(C)=O)NC(=O)[C@H](C)NC(=O)[C@H](CCCNC(=N)N)NC(=O)[C@@H](NC(=O)[C@H](CCCCN)NC(=O)[C@H](CCC(=O)O)NC(=O)[C@H](CCCNC(=N)N)NC(=O)CNC(=O)[C@H](CCC(=O)O)NC(=O)[C@H](CC(C)C)NC(C)=O)C(C)C)[C@@H](C)CC)C(=O)N[C@@H](CO)C(=O)N[C@H](C(=O)N[C@@H](Cc1cccc2ccccc12)C(=O)N[C@@H](CO)C(=O)NC(C)(C)C(=O)N[C@@H](CCCNC(=N)N)C(=O)N[C@@H](CCCCN)C(=O)N[C@@H](CCCCNC(C)=O)C(N)=O)[C@@H](C)O) [SEQ ID NO: 29] | 13.8 nM | 98% |
| Ac-LEGREKVRAK(Ac)I[Aib][Aib]EG[Nle]STWS[Aib]RKQ-NH2 (SMILES CCCC[C@H](NC(=O)CNC(=O)[C@H](CCC(=O)O)NC(=O)C(C)(C)NC(=O)C(C)(C)NC(=O)[C@@H](NC(=O)[C@H](CCCCNC(C)=O)NC(=O)[C@H](C)NC(=O)[C@H](CCCNC(=N)N)NC(=O)[C@@H](NC(=O)[C@H](CCCCN)NC(=O)[C@H](CCC(=O)O)NC(=O)[C@H](CCCNC(=N)N)NC(=O)CNC(=O)[C@H](CCC(=O)O)NC(=O)[C@H](CC(C)C)NC(C)=O)C(C)C)[C@@H](C)CC)C(=O)N[C@@H](CO)C(=O)N[C@H](C(=O)N[C@@H](Cc1c[nH]c2ccccc12)C(=O)N[C@@H](CO)C(=O)NC(C)(C)C(=O)N[C@@H](CCCNC(=N)N)C(=O)N[C@@H](CCCCN)C(=O)N[C@@H](CCC(N)=O)C(N)=O)[C@@H](C)O) [SEQ ID NO: 31] | 51.7 nM | 96% |
| Ac-LEGREKVRAK(Ac)I[Aib][Aib]EG[Nle]STWS[Aib]RKK(Ac)K(Ac)-NH2 (SMILES CCCC[C@H](NC(=O)CNC(=O)[C@H](CCC(=O)O)NC(=O)C(C)(C)NC(=O)C(C)(C)NC(=O)[C@@H](NC(=O)[C@H](CCCCNC(C)=O)NC(=O)[C@H](C)NC(=O)[C@H](CCCNC(=N)N)NC(=O)[C@@H](NC(=O)[C@H](CCCCN)NC(=O)[C@H](CCC(=O)O)NC(=O)[C@H](CCCNC(=N)N)NC(=O)CNC(=O)[C@H](CCC(=O)O)NC(=O)[C@H](CC(C)C)NC(C)=O)C(C)C)[C@@H](C)CC)C(=O)N[C@@H](CO)C(=O)N[C@H](C(=O)N[C@@H](Cc1c[nH]c2ccccc12)C(=O)N[C@@H](CO)C(=O)NC(C)(C)C(=O)N[C@@H](CCCNC(=N)N)C(=O)N[C@@H](CCCCN)C(=O)N[C@@H](CCCCNC(C)=O)C(=O)N[C@@H](CCCCNC(C)=O)C(N)=O)[C@@H](C)O) [SEQ ID NO: 28] | 22.5 nM | 92% |

More lines, now with the values ahead:

| cAMP assay in OVCAR 5 cells EC50 | cAMP assay in OVCAR 5 cells Emax | Binder |
| --- | --- | --- |
| 68.7 nM | 96% | Ac-LEGREKVRK(Ac)[Aib]I[Aib][Aib]EG[Nle]STWS[Aib]RKK-NH2 (SMILES CCCC[C@H](NC(=O)CNC(=O)[C@H](CCC(=O)O)NC(=O)C(C)(C)NC(=O)C(C)(C)NC(=O)[C@@H](NC(=O)C(C)(C)NC(=O)[C@H](CCCCNC(C)=O)NC(=O)[C@H](CCCNC(=N)N)NC(=O)[C@@H](NC(=O)[C@H](CCCCN)NC(=O)[C@H](CCC(=O)O)NC(=O)[C@H](CCCNC(=N)N)NC(=O)CNC(=O)[C@H](CCC(=O)O)NC(=O)[C@H](CC(C)C)NC(C)=O)C(C)C)[C@@H](C)CC)C(=O)N[C@@H](CO)C(=O)N[C@H](C(=O)N[C@@H](Cc1c[nH]c2ccccc12)C(=O)N[C@@H](CO)C(=O)NC(C)(C)C(=O)N[C@@H](CCCNC(=N)N)C(=O)N[C@@H](CCCCN)C(=O)N[C@@H](CCCCN)C(N)=O)[C@@H](C)O) [SEQ ID NO: 34] |
| 86.3 nM | 105% | Ac-LEGREKVRK(Ac)QI[Aib][Aib]EG[Nle]STWS[Aib]RKK-NH2 (SMILES CCCC[C@H](NC(=O)CNC(=O)[C@H](CCC(=O)O)NC(=O)C(C)(C)NC(=O)C(C)(C)NC(=O)[C@@H](NC(=O)[C@H](CCC(N)=O)NC(=O)[C@H](CCCCNC(C)=O)NC(=O)[C@H](CCCNC(=N)N)NC(=O)[C@@H](NC(=O)[C@H](CCCCN)NC(=O)[C@H](CCC(=O)O)NC(=O)[C@H](CCCNC(=N)N)NC(=O)CNC(=O)[C@H](CCC(=O)O)NC(=O)[C@H](CC(C)C)NC(C)=O)C(C)C)[C@@H](C)CC)C(=O)N[C@@H](CO)C(=O)N[C@H](C(=O)N[C@@H](Cc1c[nH]c2ccccc12)C(=O)N[C@@H](CO)C(=O)NC(C)(C)C(=O)N[C@@H](CCCNC(=N)N)C(=O)N[C@@H](CCCCN)C(=O)N[C@@H](CCCCN)C(N)=O)[C@@H](C)O) [SEQ ID NO: 33] |
| 15.8 nM |  | Ac-LEGREKVRAQI[Aib][Aib]EGQSTWS[Aib]RKK-NH2 (SMILES CC[C@H](C)[C@H](NC(=O)[C@H](CCC(N)=O)NC(=O)[C@H](C)NC(=O)[C@H](CCCNC(=N)N)NC(=O)[C@@H](NC(=O)[C@H](CCCCN)NC(=O)[C@H](CCC(=O)O)NC(=O)[C@H](CCCNC(=N)N)NC(=O)CNC(=O)[C@H](CCC(=O)O)NC(=O)[C@H](CC(C)C)NC(C)=O)C(C)C)C(=O)NC(C)(C)C(=O)NC(C)(C)C(=O)N[C@@H](CCC(=O)O)C(=O)NCC(=O)N[C@@H](CCC(N)=O)C(=O)N[C@@H](CO)C(=O)N[C@H](C(=O)N[C@@H](Cc1c[nH]c2ccccc12)C(=O)N[C@@H](CO)C(=O)NC(C)(C)C(=O)N[C@@H](CCCNC(=N)N)C(=O)N[C@@H](CCCCN)C(=O)N[C@@H](CCCCN)C(N)=O)[C@@H](C)O) [SEQ ID NO: 35] |
| 38.6 nM | 95% | Ac-LEGREKVRAK(Ac)I[Aib][Aib]EG[Nle]STWS[Aib]RKL-NH2 (SMILES CCCC[C@H](NC(=O)CNC(=O)[C@H](CCC(=O)O)NC(=O)C(C)(C)NC(=O)C(C)(C)NC(=O)[C@@H](NC(=O)[C@H](CCCCNC(C)=O)NC(=O)[C@H](C)NC(=O)[C@H](CCCNC(=N)N)NC(=O)[C@@H](NC(=O)[C@H](CCCCN)NC(=O)[C@H](CCC(=O)O)NC(=O)[C@H](CCCNC(=N)N)NC(=O)CNC(=O)[C@H](CCC(=O)O)NC(=O)[C@H](CC(C)C)NC(C)=O)C(C)C)[C@@H](C)CC)C(=O)N[C@@H](CO)C(=O)N[C@H](C(=O)N[C@@H](Cc1c[nH]c2ccccc12)C(=O)N[C@@H](CO)C(=O)NC(C)(C)C(=O)N[C@@H](CCCNC(=N)N)C(=O)N[C@@H](CCCCN)C(=O)N[C@@H](CC(C)C)C(N)=O)[C@@H](C)O) [SEQ ID NO: 32] |
